# Target: recombinant purified fragment of TLR5 ectodomain of fish origin (fish)
# Assay: competition fluorescence polarization, cell-free
substance,measurement,value
CBLB502 (ligand),"Relative EC50 vs 502, Binding (FP)",1 fold vs 502

# — US20200277339A1
